Molecular target: T1, taxol-stabilized microtubules, P02550
T1 chain: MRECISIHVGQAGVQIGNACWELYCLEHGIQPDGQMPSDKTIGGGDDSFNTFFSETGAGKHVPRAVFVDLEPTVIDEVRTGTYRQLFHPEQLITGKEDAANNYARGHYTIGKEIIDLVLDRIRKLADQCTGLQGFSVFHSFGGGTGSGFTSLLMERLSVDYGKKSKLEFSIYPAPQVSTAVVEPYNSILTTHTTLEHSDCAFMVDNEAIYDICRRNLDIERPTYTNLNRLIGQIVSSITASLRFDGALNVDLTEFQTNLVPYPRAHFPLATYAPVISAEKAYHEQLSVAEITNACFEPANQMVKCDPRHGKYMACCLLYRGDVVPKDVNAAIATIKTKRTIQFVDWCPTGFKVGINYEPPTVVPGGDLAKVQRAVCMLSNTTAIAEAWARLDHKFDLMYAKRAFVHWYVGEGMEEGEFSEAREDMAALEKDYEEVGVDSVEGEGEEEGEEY
Assay: GST pull-down of microtubules, quantified tubulin band intensity
Conditions: chain shown with the change; BRB80 buffer at room temperature; n=3; parent: est. 27; read off a plot

- response (relative intensity (GST = 1.0)): 25
B1: GST-tagged full-length (1-314 aa) CCDC74B M67N; L68N; A69N; L71N; L230N; L233N; L234N (protein)
chain: MSGAGVAAGTRPPSSPTPGSRRRRQRPSVGVQSLRPQSPQLRQSDPQKRNLDLEKSLQFLQQQHSENNNKNHEEIEHLKRENKDLRYKLIMNQTSQKKDSLSTSSFQSVKSISNSGKARPQPGSFNKQDSKADVPQKADLEEEPLLHNSKLDKVPGVQGQARKEKAEASNAGAACMGNSQHQGRQMGAAAHPPMILPLPLRKPTTLRQCEVLIRELWNTNLLQTQELQHNKSNNEGSQRPQAVPEEASFPRDQEATHFPKVSTKSLSKKCLLLSPPVAERAILPALKQTPKNNFAERQKRLQAMQKRRLHRSVL

Source: paper PMC6744678
